Test results published in patent publication US20160193348A1, “MUCOUS LAYER-ADHESIVE POLY-r-[sequence] ACID NA[…] DRUG [sequence] SYSTEM USING SAME” (priority 2013, published 2016).

Legend:
[1] = mucous adhesive property by SPECT/CT imaging after intranasal injection; details: 123I-labeled, mice, imaging at 1, 6 and 12 hours
Description: The selected eluate fraction was diluted with PBS to a final concentration of 500 μg/ml in view of ^123I-activity to be injected per mouse.
The amount of sample injected for SPECT/CT imaging was such that the sample would have a ^123I-activity of about 200 μCi or more in 40 μl upon nasal administration. 40 μl of a sample was injected into each mouse using a tip for nasal administration, and at 1, 6 and 12 hours after injection, SPECT/CT imaging was started. SPECT/CT imaging was performed for about 1 hour, in which CT imaging was performed for 10 minutes, followed by SPECT imaging for 50 minutes. Because the amount of sample injected intranasally is limited to 40 μl or less, the concentration of the sample is necessarily required to ensure ^123I-activity for imaging. ^123I-labeled nanomicelles were centrifuged, filtered (Ultracel, 10 kDa) and concentrated, thereby ensuring activity required for imaging per 40 μl. The sample was injected into both nasal cavities alternately at intervals of a few minutes depending on the size and condition of the mouse.

[2] = immunohistofluorescence imaging after intranasal injection of FITC-labeled OVA; details: mice

B1: OVA alone: OVA (ovalbumin, Sigma-Aldrich), model antigen injected alone (protein, UniProt P01012 2-386, looked up)
Ovalbumin: GSIGAASMEFCFDVFKELKVHHANENIFYCPIAIMSALAMVYLGAKDSTRTQINKVVRFDKLPGFGDSIEAQCGTSVNVHSSLRDILNQITKPNDVYSFSLASRLYAEERYPILPEYLQCVKELYRGGLEPINFQTAADQARELINSWVESQTNGIIRNVLQPSSVDSQTAMVLVNAIVFKGLWEKAFKDEDTQAMPFRVTEQESKPVQMMYQIGLFRVASMASEKMKILELPFASGTMSMLVLLPDEVSGLEQLESIINFEKLTEWTSSNVMEERKIKVYLPRMKMEEKYNLTSVLMAMGITDVFSSSANLSGISSAESLKISQAVHAAHAEINEAGREVVGSAEAGVDAASVSEEFRADHPFLFCIKHIATNAVLFFGRCVSP
time OVA remained in the nasal cavity (SPECT/CT) [1]: ≤ 6 h
time OVA remained in the nasal cavity (immunohistofluorescence) [2]: ~1 h
